The source of these data is IntAct's records for PubMed 9264463.

B1: Catenin alpha-1 (Mus musculus), P26231 (parent)
chain: MTAVHAGNINFKWDPKSLEIRTLAVERLLEPLVTQVTTLVNTNSKGPSNKKRGRSKKAHVLAASVEQATENFLEKGDKIAKESQFLKEELVVAVEDVRKQGDLMKSAAGEFADDPCSSVKRGNMVRAARALLSAVTRLLILADMADVYKLLVQLKVVEDGILKLRNAGNEQDLGIQYKALKPEVDKLNIMAAKRQQELKDVGNRDQMAAARGILQKNVPILYTASQACLQHPDVAAYKANRDLIYKQLQQAVTGISNAAQATASDDAAQHQGGSGGELAYALNNFDKQIIVDPLSFSEERFRPSLEERLESIISGAALMADSSCTRDDRRERIVAECNAVRQALQDLLSEYMGNAGRKERSDALNSAIDKMTKKTRDLRRQLRKAVMDHVSDSFLETNVPLLVLIEAAKNGNEKEVKEYAQVFREHANKLIEVANLACSISNNEEGVKLVRMSASQLEALCPQVINAALALAAKPQSKLAQENMDLFKEQWEKQVRVLTDAVDDITSIDDFLAVSENHILEDVNKCVIALQEKDVDGLDRTAGAIRGRAARVIHVVTSEMDNYEPGVYTEKVLEATKLLSNTVMPRFTEQVEAAVEALSSDPAQPMDENEFIDASRLVYDGIRDIRKAVLMIRTPEELDDSDFETEDFDVRSRTSVQTEDDQLIAGQSARAIMAQLPQEQKAKIAEQVASFQEEKSKLDAEVSKWDDSGNDIIVLAKQMCMIMMEMTDFTRGKGPLKNTSDVISAAKKIAEAGSRMDKLGRTIADHCPDSACKQDLLAYLQRIALYCHQLNICSKVKAEVQNLGGELVVSGVDSAMSLIQAAKNLMNAVVQTVKASYVASTKYQKSQGMASLNLPAVSWKMKAPEKKPLVKREKQDETQTKIKRASQKKHVNPVQALSEFKAMDSI

Variants of B1 are the subject of this assay. The conditions noted are these: with ctnb1_human CTNNB1, P35222.
Chain of ctnb1_human CTNNB1, P35222 (P35222 whole entry): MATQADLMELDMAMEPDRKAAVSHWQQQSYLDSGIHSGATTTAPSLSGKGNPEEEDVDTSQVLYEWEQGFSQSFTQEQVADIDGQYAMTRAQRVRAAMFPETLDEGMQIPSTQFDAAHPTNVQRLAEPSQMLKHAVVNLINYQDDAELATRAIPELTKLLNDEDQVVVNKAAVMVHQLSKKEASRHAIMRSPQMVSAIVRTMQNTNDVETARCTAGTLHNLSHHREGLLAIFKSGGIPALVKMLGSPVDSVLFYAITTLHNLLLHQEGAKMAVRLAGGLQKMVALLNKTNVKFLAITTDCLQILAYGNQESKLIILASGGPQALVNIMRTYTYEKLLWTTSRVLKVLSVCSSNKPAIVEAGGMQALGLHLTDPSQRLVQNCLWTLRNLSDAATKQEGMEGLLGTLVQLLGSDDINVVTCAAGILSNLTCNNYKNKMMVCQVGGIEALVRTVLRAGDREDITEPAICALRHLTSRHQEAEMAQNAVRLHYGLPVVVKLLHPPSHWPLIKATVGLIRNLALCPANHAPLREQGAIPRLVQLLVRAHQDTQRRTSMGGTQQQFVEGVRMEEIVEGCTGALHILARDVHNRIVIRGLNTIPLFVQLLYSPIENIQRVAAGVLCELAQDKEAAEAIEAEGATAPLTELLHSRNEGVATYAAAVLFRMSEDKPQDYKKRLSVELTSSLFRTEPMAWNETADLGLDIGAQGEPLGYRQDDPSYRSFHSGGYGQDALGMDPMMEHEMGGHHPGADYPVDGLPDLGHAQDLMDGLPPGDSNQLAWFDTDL
On to V135A, for which the “effect of a mutation on the interaction” value is “decreasing interaction”.

For the variant R129A, the “effect of a mutation on the interaction” value was “increasing interaction”. Take L139A: the “effect of a mutation on the interaction” value is reported as “decreasing interaction”.

As to A142S, the “effect of a mutation on the interaction” value is listed as “decreasing interaction”. For the variant L131A, the “effect of a mutation on the interaction” value is recorded as “decreasing interaction”.

Take S133A: the “effect of a mutation on the interaction” value is “increasing interaction”.

Consider R126A, for which the “effect of a mutation on the interaction” value is given as “increasing interaction”. For R137A, the “effect of a mutation on the interaction” value is given as “decreasing interaction”. Regarding V125A, the “effect of a mutation on the interaction” value is reported as “decreasing interaction”. Regarding L141A, the “effect of a mutation on the interaction” value was “decreasing interaction”.

Turning to L132A, the “effect of a mutation on the interaction” value is recorded as “decreasing interaction”. Take T136A: the “effect of a mutation on the interaction” value is listed as “increasing interaction”. Consider L138A, for which the “effect of a mutation on the interaction” value is given as “decreasing interaction”.
